{"source": "paper PMC4390240", "about": "(PLoS ONE, 2015)", "proteins": {"B1": {"name": "Pseudomonas aeruginosa cytochrome c 551, wild type (natural protein, UniProt P00099 23-104, looked up)", "chain": "EDPEVLFKNKGCVACHAIDTKMVGPAYKDVAAKFAGQAGAEAELAQRIKNGSQGVWGPIPMPPNAVSDDEAQTLAKWVLSQK", "modifications": "heme attached covalently to two Cys residues (heme-linked Cys12 and Cys15); His16 and Met61 coordinated to the heme iron; oxidized", "notes": "residues printed from Glu1; source: E. coli JCB387, purified (oxidized)"}}, "key": {"[1]": {"molecular_target": "the molecule itself", "assay": "differential scanning calorimetry; oxidized dimer, 100 μM (heme unit), scan rate 1°C/min, 50 mM potassium phosphate buffer, pH 7.0; dimer to monomers"}, "[2]": {"molecular_target": "the molecule itself", "assay": "SEC; gel chromatography (Superdex 75) at 4°C in 50 mM potassium phosphate buffer, pH 7.0, after addition of 80% (v/v) ethanol to 1 mM oxidized monomeric protein, lyophilization and resolvation with buffer"}}, "note": "Where “and” joins values, the source holds several entries; their conditions need not be identical. Equal values may be shown once."}
{"protein": "B1", "values": [{"measurement": "dH of dissociation of the dimer to monomers", "setting": "[1]", "value": "~0", "unit": "kcal/mol"}, {"measurement": "stoichiometry N", "setting": "[2]", "value": "2 and 3 and 4"}]}
